# In US20240343811A1 (SHANDONG SIMCERE BIOPHARMACUTICAL, published 2024):
# Residue numbers refer to the chain shown, from its start.
# T1: Human CD16b (NA1)-his (human)
# T1 construct: entry holds ECD, linker, His tag and AVI tag
# T1 chain: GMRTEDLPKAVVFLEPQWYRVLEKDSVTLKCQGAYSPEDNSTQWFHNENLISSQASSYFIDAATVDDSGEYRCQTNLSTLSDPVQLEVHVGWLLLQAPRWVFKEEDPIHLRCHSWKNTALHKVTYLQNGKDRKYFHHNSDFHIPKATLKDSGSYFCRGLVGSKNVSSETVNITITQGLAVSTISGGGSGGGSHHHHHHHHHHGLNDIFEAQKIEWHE
# B1: VHH11 VHH-Fc antibody (Fc fusion)
# chain: EVQVVESGGGLAQAGGSLRLSCAVSGITFSSYAMGWYRQDPGKQRELVAAINRFGLTNYADSVKGRFTISRDNAKNTVYLQMTSLKPEDTAVYYCNTGGVYSHPNYYTGTYWGQGTQVTVSSEPKSSDKTHTCPPCPAPEFEGGPSVFLFPPKPKDTLMISRTPEVTCVVVAVSHEDPEVKFNWYVDGVEVHNAKTKPREEQYNSTYRVVSVLTVLHQDWLNGKEYKCKVSNKALPAPIEKTISKAKGQPREPQVYTLPPSREEMTKNQVSLTCLVKGFYPSDIAVEWESNGQPENNYKTTPPVLDSDGSFFLYSKLTVDKSRWQQGNVFSCSVMHEALHNHYTQKSLSLSPGK
# B2: VHH12 VHH-Fc antibody (Fc fusion)
# chain: B1 chain with E1Q, V4L, A12V, V24A, D40A, S62F, D72V, N105D
# B3: VHH06 VHH-Fc antibody (Fc fusion)
# chain: EVQLVESGGGLVQAGGSLRLSCVASGSTWTTYAVRWYRQAPGKQREWVAFISVDGSTNYPDSVKGRFIVSRDNAKNTVYLQMNSLKPEDTADYICRVGGQYWGQGTQVTVSSEPKSSDKTHTCPPCPAPEFEGGPSVFLFPPKPKDTLMISRTPEVTCVVVAVSHEDPEVKFNWYVDGVEVHNAKTKPREEQYNSTYRVVSVLTVLHQDWLNGKEYKCKVSNKALPAPIEKTISKAKGQPREPQVYTLPPSREEMTKNQVSLTCLVKGFYPSDIAVEWESNGQPENNYKTTPPVLDSDGSFFLYSKLTVDKSRWQQGNVFSCSVMHEALHNHYTQKSLSLSPGK
# Biological target: T2, CD16 on primary human NK cells (human, UniProt P08637 17-254)
# T2 construct: whole, on cells; also called resting NK cells
# Assay: FACS on human NK cells
# Procedure, shortened: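 Freshly prepared human NK cells were resuspended at 2×10⁶ cells/ml in PBS+2% (w/w) BSA and incubated 1 h on ice with antibody at varying concentrations. After five PBS washes, flow cytometry gave mean fluorescence intensity, and EC50 was fitted from the MFI curve.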
EC50 [nM],Maximum mean fluorescence intensity,Binder
0.33,2660,B1
0.21,2680,B2
0.54,2600,B3

# Biological target: T3, human CD16a (158V), full length, on cells (human, UniProt P08637 17-254)
# Assay: cell-based or functional assay
# T3 sequence (P08637 17-254 F176V limits assumed): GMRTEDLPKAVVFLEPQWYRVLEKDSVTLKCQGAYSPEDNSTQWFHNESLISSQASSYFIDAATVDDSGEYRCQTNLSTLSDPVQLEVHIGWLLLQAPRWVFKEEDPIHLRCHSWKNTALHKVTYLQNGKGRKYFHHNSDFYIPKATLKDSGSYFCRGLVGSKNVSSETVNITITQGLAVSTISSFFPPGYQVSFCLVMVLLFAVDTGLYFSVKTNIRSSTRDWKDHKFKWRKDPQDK
"EC50, activation activity for Jurkat cell [nM]",Maximum fluorescence value,Binder
0.03,166000,B1
0.02,165000,B2
0.04,169000,B3

# Biological target: T4, human CD16a (158F), full length, on FlpinCHO cells (human, UniProt P08637 17-254)
# Assay: FACS, biotinylated antibody
# T4 sequence (P08637 17-254 limits assumed): as the sequence (P08637 17-254 F176V limits assumed) above, with V160F counted along it
EC50 [nM],Maximum mean fluorescence intensity,Binder
0.2,7240,B1
0.12,5410,B2
0.39,9740,B3

# Biological target: T3, human CD16a (158V), full length, on …
# Assay: FACS, biotinylated antibody
EC50 [nM],Maximum mean fluorescence intensity,Binder
0.36,10700,B1
0.16,7950,B2
0.79,13300,B3

# Biological target: T2, CD16 on primary human NK cells
# Assay: FACS on human NK cells, biotinylated antibody
EC50 [nM],Maximum mean fluorescence intensity,Binder
0.95,60700,B1
0.4,46500,B2
1.42,69600,B3

# Biological target: T5, Human CD16a (158F)-his (human)
# T5 construct: entry holds ECD, AVI tag, linker and His tag
# Assay: SPR (Biacore), antibody captured on Protein A
# Procedure, shortened: (§1)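 Protein A–captured antibody was probed with CD16-his ECD in HBS-EP+ at 25 °C: five 2-fold dilutions from 200 nM, 240 s at 30 μL/min, dissociation up to 600 s. Glycine pH 1.5 regenerated the chip. Apparent KD came from a double-referenced 1:1 Langmuir fit.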
Kd [nM],koff [s⁻¹],kon [M⁻¹ s⁻¹],Binder
42.9,0.0235,548000,B1
13.3,0.0117,878000,B2
5.84,0.000374,64000,B3

# Biological target: T6, Human CD16a (158V)-his (human)
# T6 construct: entry holds ECD, AVI tag, linker and His tag
# Assay: SPR (Biacore), antibody captured on Protein A
# Procedure, shortened: as §1
Kd [nM],koff [s⁻¹],kon [M⁻¹ s⁻¹],Binder
32,0.0491,1.53e+06,B1
10.8,0.0201,1.86e+06,B2
1.96,0.000213,109000,B3

# Biological target: T1, Human CD16b (NA1)-his
# Assay: SPR (Biacore), antibody captured on Protein A
# Procedure, shortened: as §1
Kd [nM],koff [s⁻¹],kon [M⁻¹ s⁻¹],Binder
6010,0.259,43100,B1
1500,0.154,103000,B2
8.63,0.00113,130000,B3

# Biological target: T4, human CD16a (158F), full length, on …
# Assay: FACS, biotinylated antibody, +10 mg/mL human immunoglobulin
EC50 [nM],Maximum mean fluorescence intensity,Binder
0.75,6720,B1
0.81,5310,B2
1.66,10700,B3

# Biological target: T3, human CD16a (158V), full length, on …
# Assay: as above
EC50 [nM],Maximum mean fluorescence intensity,Binder
1.12,10800,B1
0.97,8140,B2
1.77,14500,B3

# Biological target: T2, CD16 on primary human NK cells
# Assay: FACS on human NK cells, biotinylated antibody, +10 mg/mL human immunoglobulin
EC50 [nM],Maximum mean fluorescence intensity,Binder
2.31,62300,B1
1.82,48900,B2
3.9,80000,B3
